In patent publication US20090124546A1 (EBERHARD KARLS UNIVERSITAET TUEBINGEN UNIVERSITAETSKILINIKUM, published 2009):

Target: the molecule itself
Experiment: SDS-PAGE and Western blot of synthetic peptide (self-association)
Description: Western blot analysis. After physical exercise sweat of the forehead was collected and analyzed by Western blot as already described (Rieg, S. et al. 2006 J. Investig. Dermatol. 126:354-365). Briefly, sweat was centrifuged 3 min at 13,000 rpm (16,000×g) to remove particles and frozen. Then, 15-μl portions of the samples and 4 μg of the DCD peptides LEK-45 and DCD-1L dissolved in water were separated by sodium dodecyl sulfate-polyacrylamide gel electrophoresis (using 15% acrylamide with 0.05% bisacrylamide), transferred electrophoretically (1200 mA/h) onto polyvinylidene difluoride membrane sheets (Immobilon-PSQ; Millipore, Germany) with a tank type blotter and then blocked in 10% nonfat milk in PBS (pH 7.4) for 30 min at room temperature. After incubation with a rabbit polyclonal anti-DCD antibody (1:2,000) that detects the C terminus of DCD-1L overnight at 4° C., the membrane sheets were washed with phosphate buffer and incubated with an anti-rabbit secondary biotin-conjugated polyclonal antibody (1:1,500 in blocking solution). After washing in phosphate buffer the Streptavidin-AP-conjugate (Roche, Mannheim, Germany) was used for the detection of biotin-labeled secondary antibody. The membrane was immersed in CDP-Star solution (Western Lightning chemiluminescence reagents for AP; Roche) for 10 min and then exposed to X-ray film (Eastman Kodak, Rochester, N.Y.).

Row | Protein | binding result
1 | SSLLEKGLDGAKKAVGGLGKLGKDAVEDLESVGKGAVHDVKDVLDSVL (also called synthetic peptide DCD-1L) [DCD-1L] | binds
2 | LEKGLDGAKKAVGGLGKLGKDAVEDLESVGKGAVHDVKDVLDSVL [LEK-45] | binds
